Results on two molecules are retold here after patent publication US20220387586A1 (Hoffmann-La Roche, published 2022).

The target in assay [1] is T1, recombinant Human LAG-3 Fc Chimera Protein (R&D Systems, 2319-L3) (human, UniProt P18627 29-450).
T1 construct: Bought protein; also called huLAG3; not shown: Fc part of the chimera
T1 sequence: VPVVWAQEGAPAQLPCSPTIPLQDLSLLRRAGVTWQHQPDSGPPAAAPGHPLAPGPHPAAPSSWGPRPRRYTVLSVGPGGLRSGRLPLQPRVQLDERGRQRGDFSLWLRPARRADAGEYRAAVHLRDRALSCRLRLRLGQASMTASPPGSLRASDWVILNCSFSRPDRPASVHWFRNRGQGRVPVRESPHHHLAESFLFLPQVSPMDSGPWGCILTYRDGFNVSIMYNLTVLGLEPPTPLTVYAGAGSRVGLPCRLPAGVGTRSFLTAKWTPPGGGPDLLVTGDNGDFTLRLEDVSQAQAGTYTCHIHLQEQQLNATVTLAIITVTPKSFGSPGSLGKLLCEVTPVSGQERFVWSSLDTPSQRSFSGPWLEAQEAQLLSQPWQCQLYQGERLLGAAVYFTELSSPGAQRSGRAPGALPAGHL
Put plainly: ELISA on coated Human LAG-3 Fc Chimera (rel. EC50). The gist of the method:
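Wells blocked 1 h at RT in PBS + 2% BSA + 0.05% Tween 20; bound antibody detected with goat anti-human Ig κ-HRP (1:2000, 1 h RT), then TMB substrate for 2-10 min. Absorbance read at 370/492 nm.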
(In general: ELISA stands for enzyme-linked immunosorbent assay.)

Assay [2] has as its target T2, full-length human PD1 on cells (human, UniProt Q15116 25-288).
T2 construct: also called CHO-PD1
Description: cell ELISA on CHO-K1 cells expressing full-length human PD1 (rel. EC50). Put shortly: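 Cells bound by test antibody were fixed with 0.05% glutaraldehyde for 10 min at RT, then detected with POD-conjugated anti-human H+L or anti-mouse secondary antibody for 1 h at RT. TMB development ran to OD 1.0-2.0, read at 370/492 nm.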

Assay [3] has as its target T3, biotinylated-Lag3 (UniProt P18627 23-450, limits assumed, biotinylated).
T3 construct: Probably a human LAG3 ECD construct; also called Lag3 (MHCII/ELISA)
T3 sequence (looked up): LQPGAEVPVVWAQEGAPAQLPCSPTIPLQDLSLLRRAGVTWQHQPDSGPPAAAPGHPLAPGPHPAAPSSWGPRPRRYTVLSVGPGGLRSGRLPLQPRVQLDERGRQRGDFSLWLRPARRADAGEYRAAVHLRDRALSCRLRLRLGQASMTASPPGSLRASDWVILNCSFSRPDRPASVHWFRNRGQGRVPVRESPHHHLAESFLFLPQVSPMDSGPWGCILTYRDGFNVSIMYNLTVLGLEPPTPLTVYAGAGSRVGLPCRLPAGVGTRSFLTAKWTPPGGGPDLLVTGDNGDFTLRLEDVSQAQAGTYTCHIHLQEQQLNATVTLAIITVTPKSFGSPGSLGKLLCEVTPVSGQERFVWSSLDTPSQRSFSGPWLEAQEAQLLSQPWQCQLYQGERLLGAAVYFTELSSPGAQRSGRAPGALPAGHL
Put plainly: ELISA, inhibition of biotinylated-Lag3 binding to MHC-II on A375 cells (competitor MHC-II).

In assay [4] the target is PD1 on PD1+LAG3+ human U2OS cells (UniProt Q15116 25-288). Description: cell-based or functional assay.
The target of assay [5] is T4, biotinylated PD1-ECD-AviHis (human, UniProt Q15116 25-170, biotinylated).
T4 construct: also called huPD1; hu PD1; not shown: Avi-His tag
Description: ELISA on coated biotinylated PD1-ECD-AviHis (rel. EC50). As to the method:
After washing (3×90 μl/well with PBST-buffer) 25 μl/well goat-anti-human H+L-POD (JIR, JIR109-036-098) was added in 1:5000 dilution and incubated at RT for 1 h on a shaker. After washing (3×90 μl/well with PBST-buffer) 25 μl/well of TMB substrate (Roche, 11835033001) was added and incubated until OD 2-3. Measurement took place at 370/492 nm.

T2 sequence (Q15116 25-288 limits assumed): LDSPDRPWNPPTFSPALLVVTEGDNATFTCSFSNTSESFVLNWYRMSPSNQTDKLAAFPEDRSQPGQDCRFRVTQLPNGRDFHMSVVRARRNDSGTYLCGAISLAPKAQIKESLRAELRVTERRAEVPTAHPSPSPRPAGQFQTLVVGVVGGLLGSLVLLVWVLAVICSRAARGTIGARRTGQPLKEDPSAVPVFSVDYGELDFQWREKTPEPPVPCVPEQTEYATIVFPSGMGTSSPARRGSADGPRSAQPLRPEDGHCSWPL
Chain of PD1 on PD1+LAG3+ human U2OS cells (Q15116 25-288): as the sequence (Q15116 25-288 limits assumed) above
T4 sequence (Q15116 25-170): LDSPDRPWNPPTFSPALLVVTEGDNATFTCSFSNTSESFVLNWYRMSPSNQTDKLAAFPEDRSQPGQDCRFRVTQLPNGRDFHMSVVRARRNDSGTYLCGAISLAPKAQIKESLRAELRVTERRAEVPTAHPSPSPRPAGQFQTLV

B1: PD1/LAG3 0927 (bispecific antibody, human IgG1, kappa, L234A L235A)
heavy 1: not shown
heavy 2: EVQLLESGGGLVQPGGSLRLSCAASGFIFDDYTMNWVRQAPGKGLEWVAVISWDGGGTYYTDSVKGRFTISRDDFKNTLYLQMNSLRAEDTAVYYCAKGLTDTTLYGSDYWGQGTLVTVSSASTKGPSVFPLAPSSKSTSGGTAALGCLVEDYFPEPVTVSWNSGALTSGVHTFPAVLQSSGLYSLSSVVTVPSSSLGTQTYICNVNHKPSNTKVDEKVEPKSCDKTHTCPPCPAPEAAGGPSVFLFPPKPKDTLMISRTPEVTCVVVDVSHEDPEVKFNWYVDGVEVHNAKTKPREEQYNSTYRVVSVLTVLHQDWLNGKEYKCKVSNKALGAPIEKTISKAKGQPREPQVCTLPPSRDELTKNQVSLSCAVKGFYPSDIAVEWESNGQPENNYKTTPPVLDSDGSFFLVSKLTVDKSRWQQGNVFSCSVMHEALHNHYTQKSLSLSPGK
light 1: EVQLLESGGGLVQPGGSLRLSCAASGFSFSSYTMSWVRQAPGKGLEWVATISGGGRDIYYPDSVKGRFTISRDNSKNTLYLQMNSLRAEDTAVYYCVLLTGRVYFALDSWGQGTLVTVSSASVAAPSVFIFPPSDEQLKSGTASVVCLLNNFYPREAKVQWKVDNALQSGNSQESVTEQDSKDSTYSLSSTLTLSKADYEKHKVYACEVTHQGLSSPVTKSFNRGEC
light 2: not shown
notes: 1+1 CrossMAb Vh-VL, knobs into holes, IgG1 PGLALA
B1: the EC50 (as a rule, the concentration needed to bring the measured effect to its halfway point) is 180 pM in assay [1], 100 pM in assay [2] and 70 pM in assay [5]. Besides, the IC50 (in general, the concentration that inhibits the measured activity by half) in assay [3] amounted to 1110 pM. The “EC50 [pM], dimerization binding assay (chemoluminescence)” value in assay [4] amounted to 41 pM.

B2: PD1/LAG3 0799 (bispecific antibody, human IgG1, kappa, L234A L235A)
heavy 1: not shown
heavy 2: EVQLVESGGGLVQPGGSLRLACAASGFTFSDYAMSWVRQAPGKGLEWVSGIDNSGYYTYYTDSVKGRFTISRDDVKNTLYLQMNSLRAEDTAVYLCTKTHSGLIVNDAFDIWGQGTMVTVSSASTKGPSVFPLAPSSKSTSGGTAALGCLVEDYFPEPVTVSWNSGALTSGVHTFPAVLQSSGLYSLSSVVTVPSSSLGTQTYICNVNHKPSNTKVDEKVEPKSCDKTHTCPPCPAPEAAGGPSVFLFPPKPKDTLMISRTPEVTCVVVDVSHEDPEVKFNWYVDGVEVHNAKTKPREEQYNSTYRVVSVLTVLHQDWLNGKEYKCKVSNKALGAPIEKTISKAKGQPREPQVCTLPPSRDELTKNQVSLSCAVKGFYPSDIAVEWESNGQPENNYKTTPPVLDSDGSFFLVSKLTVDKSRWQQGNVFSCSVMHEALHNHYTQKSLSLSPGK
light 1: EVQLLESGGGLVQPGGSLRLSCAASGFSFSSYTMSWVRQAPGKGLEWVATISGGGRDIYYPDSVKGRFTISRDNSKNTLYLQMNSLRAEDTAVYYCVLLTGRVYFALDSWGQGTLVTVSSASVAAPSVFIFPPSDEQLKSGTASVVCLLNNFYPREAKVQWKVDNALQSGNSQESVTEQDSKDSTYSLSSTLTLSKADYEKHKVYACEVTHQGLSSPVTKSFNRGEC
light 2: not shown
notes: as for B1
Turning to B2, the concentration for a half-maximal effect (EC50) in assay [1] is 70 pM; in assay [2], 70 pM; in assay [5], 60 pM. This molecule also displayed an IC50 in assay [3] of 720 pM. Further, the “EC50 [pM], dimerization binding assay (chemoluminescence)” value in assay [4] worked out at 76 pM.
